Laboratory results reported in patent publication US20160024487.

Tests used:
[1] = target: T1, Lys(Dnp)-ASTAVVIAGRIVGG-Lys(Abz)
T1 chain: KASTAVVIAGRIVGGK

[2] = target: T2, Lys(Dnp)-DFLAEGGGPRIVGG-Lys(Abz)
T2 chain: KDFLAEGGGPRIVGGK

[3] = target: T3, Lys(Dnp)-NRLAAALGIRIVGG-Lys(Abz)
T3 chain: KNRLAAALGIRIVGGK

[4] = target: T4, Lys(Dnp)-ATNATRQPRIVGG-Lys(Abz)
T4 chain: KATNATRQPRIVGGK

[5] = target: T5, Lys(Dnp)-TVELQGVVPRIVGG-Lys(Abz)
T5 chain: KTVELQGVVPRIVGGK

[6] = target: T6, Lys(Dnp)-TNATLDPRIVGG-Lys(Abz)
T6 chain: KTNATLDPRIVGGK

[7] = target: T7, Lys(Dnp)-RGDSVVYGLRIVGG-Lys(Abz)
T7 chain: KRGDSVVYGLRIVGGK

[8] = target: T8, Lys(Dnp)-ATNATQPPRIVGG-Lys(Abz)
T8 chain: KATNATQPPRIVGGK

[9] = target: T9, Lys(Dnp)-ATNATDWPRIVGG-Lys(Abz)
T9 chain: KATNATDWPRIVGGK

[10] = target: T10, Lys(Dnp)-ATNATLPPRIVGG-Lys(Abz)
T10 chain: KATNATLPPRIVGGK

[11] = target: T11, Lys(Dnp)-PDNIAAWYLRIVGG-Lys(Abz)
T11 chain: KPDNIAAWYLRIVGGK

[12] = target: T12, Lys(Dnp)-NESTTKIKPRIVGG-Lys(Abz)
T12 chain: KNESTTKIKPRIVGGK

[13] = target: T13, Lys(Dnp)-ATNATDSPRIVGG-Lys(Abz)
T13 chain: KATNATDSPRIVGGK

[14] = target: T14, Lys(Dnp)-STPSILPAPRIVGG-Lys(Abz)
T14 chain: KSTPSILPAPRIVGGK

[15] = target: T15, Lys(Dnp)-YDEDENQSPRIVGG-Lys(Abz)
T15 chain: KYDEDENQSPRIVGGK

[16] = target: T16, Lys(Dnp)-LSKNNAIEPRIVGG-Lys(Abz)
T16 chain: KLSKNNAIEPRIVGGK

[17] = target: T17, Lys(Dnp)-ATNATKPPRIVGG-Lys(Abz)
T17 chain: KATNATKPPRIVGGK

[18] = target: T18, Lys(Dnp)-EDQEDQVDPRIVGG-Lys(Abz)
T18 chain: KEDQEDQVDPRIVGGK

[19] = target: T19, Lys(Dnp)-ATNATNDPRIVGG-Lys(Abz)
T19 chain: KATNATNDPRIVGGK

[20] = target: T20, Lys(Dnp)-ATNATNPPRIVGG-Lys(Abz)
T20 chain: KATNATNPPRIVGGK

[21] = target: T21, Lys(Dnp)-ATNATENPRIVGG-Lys(Abz)
T21 chain: KATNATENPRIVGGK

[22] = target: T22, Lys(Dnp)-SEYQTFFNPRIVGG-Lys(Abz)
T22 chain: KSEYQTFFNPRIVGGK

[23] = target: T23, Lys(Dnp)-ATNATDIPRIVGG-Lys(Abz)
T23 chain: KATNATDIPRIVGGK

[24] = target: T24, Lys(Dnp)-ATNATDPPRIVGG-Lys(Abz)
T24 chain: KATNATDPPRIVGGK

[25] = target: T25, Lys(Dnp)-ATNATDKPRIVGG-Lys(Abz)
T25 chain: KATNATDKPRIVGGK

[26] = target: T26, Lys(Dnp)-ATLDPRIVGG-Lys(Abz)
T26 chain: KATLDPRIVGGK

[27] = target: T27, Lys(Dnp)-DFLAEGGGVRIVGG-Lys(Abz)
T27 chain: KDFLAEGGGVRIVGGK

[28] = target: T28, Lys(Dnp)-NLAKPTLPIKIVGG-Lys(Abz)
T28 chain: KNLAKPTLPIKIVGGK

[29] = target: T29, Lys(Dnp)-QISNDTVSPRIVGG-Lys(Abz)
T29 chain: KQISNDTVSPRIVGGK

[30] = target: T30, Lys(Dnp)-EDSDRAIEGRIVGG-Lys(Abz)
T30 chain: KEDSDRAIEGRIVGGK

[31] = target: T31, Lys(Dnp)-DNEEGFFSARIVGG-Lys(Abz)
T31 chain: KDNEEGFFSARIVGGK

[32] = target: T32, Lys(Dnp)-HTHHAPLSPRIVGG-Lys(Abz)
T32 chain: KHTHHAPLSPRIVGGK

[33] = target: T33, Lys(Dnp)-DQVTVAMTPRIVGG-Lys(Abz)
T33 chain: KDQVTVAMTPRIVGGK

B1: Human plasma purified Factor Xa (Molecular Innovations, Inc) (protein)
chain 1: ANSFLEEMKKGHLERECMEETCSYEEAREVFEDSDKTNEFWNKYKDGDQCETSPCQNQGKCKDGLGEYTCTCLEGFEGKNCELFTRKLCSLDNGDCDQFCHEEQNSVVCSCARGYTLADNGKACIPTGPYPCGKQTLERRKR
chain 2: IVGGQECKDGECPWQALLINEENEGFCGGTILSEFYILTAAHCLYQAKRFKVRVGDRNTEQEEGGEAVHEVEVVIKHNRFTKETYDFDIAVLRLKTPITFRMNVAPACLPERDWAESTLMTQKTGIVSGFGRTHEKGRQSTRLKMLEVPYVDRNSCKLSSSFIITQNMFCAGYDTKQEDACQGDSGGPHVTRFKDTYFVTGIVSWGEGCARKGKYGIYTKVTAFLKWIDRSMKTRGLPKAKSHAPEVITSSPLK
- FXa kcat/KM [1]: 2.1 M⁻¹ s⁻¹
- FXa kcat/KM [2]: 5.8 M⁻¹ s⁻¹
- FXa kcat/KM [3]: 350 M⁻¹ s⁻¹
- FXa kcat/KM [4]: 4500 M⁻¹ s⁻¹
- FXa kcat/KM [5]: 100 M⁻¹ s⁻¹
- FXa kcat/KM [6]: 860 M⁻¹ s⁻¹
- FXa kcat/KM [7]: 1.7 M⁻¹ s⁻¹
- FXa kcat/KM [8]: 9.5 M⁻¹ s⁻¹
- FXa kcat/KM [9]: 7.2 M⁻¹ s⁻¹
- FXa kcat/KM [10]: 1.6 M⁻¹ s⁻¹
- FXa kcat/KM [11]: 15 M⁻¹ s⁻¹
- FXa kcat/KM [12]: 36 M⁻¹ s⁻¹
- FXa kcat/KM [13]: 4.4 M⁻¹ s⁻¹
- FXa kcat/KM [14]: 230 M⁻¹ s⁻¹
- FXa kcat/KM [15]: 320 M⁻¹ s⁻¹
- FXa kcat/KM [16]: 1000 M⁻¹ s⁻¹
- FXa kcat/KM [17]: 8.7 M⁻¹ s⁻¹
- FXa kcat/KM [18]: 13 M⁻¹ s⁻¹
- FXa kcat/KM [19]: 30 M⁻¹ s⁻¹
- FXa kcat/KM [20]: 2.9 M⁻¹ s⁻¹
- FXa kcat/KM [21]: 3.3 M⁻¹ s⁻¹
- FXa kcat/KM [22]: 140 M⁻¹ s⁻¹
- FXa kcat/KM [23]: 41 M⁻¹ s⁻¹
- FXa kcat/KM [24]: 1.6 M⁻¹ s⁻¹
- FXa kcat/KM [25]: 11 M⁻¹ s⁻¹
- FXa kcat/KM [26]: 940 M⁻¹ s⁻¹
- FXa kcat/KM [27]: 3.4 M⁻¹ s⁻¹
- FXa kcat/KM [28]: 3 M⁻¹ s⁻¹
- FXa kcat/KM [29]: 340 M⁻¹ s⁻¹
- FXa kcat/KM [30]: 1900 M⁻¹ s⁻¹
- FXa kcat/KM [31]: 230 M⁻¹ s⁻¹
- FXa kcat/KM [32]: 100 M⁻¹ s⁻¹
- FXa kcat/KM [33]: 470 M⁻¹ s⁻¹
